For one substance, Mean OD results are on record in patent US20140178854A1.

The assay concerns the target gp70 env protein of amphotropic MLV (4070A envelope), on purified viral particles (amphotropic murine leukemia virus (4070A envelope)). The assay is described as follows: ELISA on plate-bound MLV, dilution factor 1250, Exp121-Ana Plate 2.

Chain of gp70 env protein of amphotropic MLV (4070A envelope), on purified viral particles (amphotropic murine leukemia virus (4070A envelope)) (P21995 whole entry): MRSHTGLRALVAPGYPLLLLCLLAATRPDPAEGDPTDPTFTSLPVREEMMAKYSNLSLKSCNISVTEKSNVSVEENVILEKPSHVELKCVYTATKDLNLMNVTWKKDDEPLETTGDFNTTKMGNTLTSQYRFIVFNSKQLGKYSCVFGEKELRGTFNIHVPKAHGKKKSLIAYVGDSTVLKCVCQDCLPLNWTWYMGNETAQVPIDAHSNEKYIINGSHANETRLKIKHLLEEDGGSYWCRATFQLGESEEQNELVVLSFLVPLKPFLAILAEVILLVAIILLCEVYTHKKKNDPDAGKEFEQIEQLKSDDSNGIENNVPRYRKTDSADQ

Turning to “83A25 monoclonal antibody (rat IgG2a, anti-gp70)”, the Mean OD amounted to 1.84 OD.
